According to patent publication US20250066499A1 (SUNSHINE GUOJIAN PHARMACEUTICAL SHANGHAI, published 2025):
Substitutions are numbered along the chain they refer to.

T1: CD73-ND-V186A (human, UniProt P21589 27-317)
T1 construct: Alanine mutant of CD73-ND
T1 sequence: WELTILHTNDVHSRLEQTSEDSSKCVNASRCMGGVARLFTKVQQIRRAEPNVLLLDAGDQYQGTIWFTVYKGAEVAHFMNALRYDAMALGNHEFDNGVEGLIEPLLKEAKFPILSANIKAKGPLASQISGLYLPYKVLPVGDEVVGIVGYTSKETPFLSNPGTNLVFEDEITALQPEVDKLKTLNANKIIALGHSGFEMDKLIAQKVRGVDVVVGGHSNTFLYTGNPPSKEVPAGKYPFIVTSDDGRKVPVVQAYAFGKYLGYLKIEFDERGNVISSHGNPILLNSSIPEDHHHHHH

T2: CD73-ND-N187A (human, UniProt P21589 27-317)
T2 construct: Alanine mutant of CD73-ND
T2 sequence: T1 sequence with A186V, N187A

T3: CD73-ND-his (human, UniProt P21589 27-317)
T3 construct: Biotinylated and captured on streptavidin in the ELISA
T3 sequence: T1 sequence with A186V

T4: CD73-ND-Y132A (human, UniProt P21589 27-317)
T4 construct: Alanine mutant of CD73-ND
T4 sequence: T1 sequence with Y132A, A186V

T5: CD73-ND-L138A (human, UniProt P21589 27-317)
T5 construct: Alanine mutant of CD73-ND
T5 sequence: T1 sequence with L138A, A186V

T6: CD73-CD-his (human, UniProt P21589 337-549)
T6 construct: it fits residue S549 of P21589 (27+522)
T6 sequence: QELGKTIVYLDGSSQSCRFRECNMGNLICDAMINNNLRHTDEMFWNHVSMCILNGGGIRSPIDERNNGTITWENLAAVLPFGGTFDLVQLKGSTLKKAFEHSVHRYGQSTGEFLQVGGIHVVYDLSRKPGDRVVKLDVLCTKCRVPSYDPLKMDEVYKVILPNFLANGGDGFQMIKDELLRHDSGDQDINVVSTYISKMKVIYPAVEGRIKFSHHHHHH

B1: 48A11-HuV33 (antibody, human IgG4, V domains shown)
VH: QVQLVQSGAEVKKPGASVKVSCKASGYTFTSYWMHWVRQAPGQGLEWIGEINPSIGRTNYNEKFKSRVTLTRDTSTSTAYMELSSLRSEDTAVYYCARRVYGTMDYWGQGTLVTVSS
VL: DIQMTQSPSSLSASVGDRVTITCKASQDINSYLSWFQQKPGKSPKLLIYRANIWVDGVPSRFSGSGSGQDYTFTISSLQPEDIATYYCLQYDELYTFGQGTKVEIK
notes: Humanized
B2: 56B10-HuV31 (antibody, human IgG4, V domains shown)
VH: QVQLQQSGAEVKKPGASVKVSCKASGYTFTRYYIYWVRQRPGQGLEWIGWIYPGNFNTKYNEKFKGRATLTADTSASTAYMELSSLTSEDTAVYYCARDVYDYAGFAYWGQGTLVTVSS
VL: DIQLTQSPSFLSASVGDRVTITCKASQGVATAVAWYQQKPGQSPKLLIYWASTRHTGVPDRFSGSGSGTEFTLTISSLQPEDFATYYCQQYSSYPWTFGQGTKVEIK
notes: Humanized

Experiments:
[1] = molecular target: T1, CD73-ND-V186A; test: ELISA; decline multiple of EC50 against CD73-ND
Procedure: (§1) The ELISA plates were coated with SA protein diluted to 1.5 μg/mL in coating buffer (50 mM carbonate coating buffer, pH 9.6) and incubated overnight at 4° C. The supernatant was discarded, and the plates were washed three times with PBST. Then, 5% skimmed milk powder prepared with PBS was added for blocking and the plates were incubated for 2 h at 37° C. After washing the plates once with PBST, CD73-biotin protein (prepared by biotinylating CD73-His protein according to the EZ-Link NHS-Biotin Reagent instructions) was diluted to 0.5 μg/mL and added at 100 μL/well for incubation at room temperature for 1 h. The plates were washed three times with PBST, and the prepared murine-derived monoclonal antibodies against human CD73 were serially diluted with 1% BSA buffer prepared with PBST and added to the ELISA plates at 100 μl/well. The plates were incubated at 37° C. for 1 h. After washing the plates three times with PBST, HRP-labeled goat anti-mouse IgG secondary antibody was added and the plates were incubated for 30 min at 37° C. After washing the plates three times with PBST, the residual droplets were patted dry on absorbent paper as much as possible. Then, 100 μl of TMB color developing solution was added to each well, and the plates were incubated in the dark at room temperature for 5 min for color development. Subsequently, 50 μl of 2M H₂SO₄ stop solution was added to each well to terminate the substrate reaction. The OD values were read at 450 nm using a multimode microplate reader to analyze the binding ability of the tested antibodies to the target antigen human CD73-His.
(§2) Referring to the experimental method in Example 3, the affinity of 48A11-HuV33 for various mutant proteins of CD73-ND was determined. The SA protein was diluted to 1 μg/mL for coating the ELISA plates, and the biotinylated CD73 protein (CD73-biotin) was used at a concentration of 0.1 μg/mL.

[2] = molecular target: T1, CD73-ND-V186A; test: ELISA; decline multiple of Top against CD73-ND
Procedure: as §1, §2

[3] = molecular target: T2, CD73-ND-N187A; test: ELISA; decline multiple of Top against CD73-ND
Procedure: as §1, §2

[4] = molecular target: T3, CD73-ND-his; test: ELISA; decline multiple of Top against CD73-ND
Procedure: as §1, §2

[5] = molecular target: T4, CD73-ND-Y132A; test: ELISA, biotinylated antigen on streptavidin plate
Procedure: as §1, §2

[6] = molecular target: T5, CD73-ND-L138A; test: ELISA, biotinylated antigen on streptavidin plate
Procedure: as §1, §2

[7] = molecular target: T6, CD73-CD-his; test: ELISA as in Example 3, antigen CD73-CD-his, antibody titrated, absorbance 450 nm

Row | Binder | Ratio(EC50) [1] | Ratio(Top) [2] | Ratio(Top) [3] | Ratio(Top) [4] | EC50 [5] | EC50 [6] | binding result [7]
1 | B1 | 1.4 fold | 1.2 fold | 1.1 fold | 1 fold | 10.5 nM | 0.182 nM | –
2 | B2 | – | – | – | – | – | – | no binding (tested: 10 nM)
